Assay results as given in US20220402983A1 (Janssen / Centocor, published 2022).
*1 amine or outer side, *2 acyl side, *3 side chain or, on linkers, in order; H or OH if unused. Bridges are numbered along the chain shown (N, C = ends). Primed or numbered codes have the meaning given here. Where no end group is shown, it is not given here. [ ]: non-standard residue; d: D form. The star is where a group is joined. Phe(4-(2-(Boc)aminoethoxy)) = phenylalanine with 4-(2-(Boc-amino)ethoxy) on the ring, CC(C)(C)OC(=O)NCCOc1ccc(C[C@H](N[*:1])C(=O)[*:2])cc1; Phe(4-OMe)″ = 4-methoxyphenylalanine, COc1ccc(C[C@H](N[*:1])C(=O)[*:2])cc1; Trp(7-Ph) = N[C@@H](Cc1c[nH]c2c(-c3ccccc3)cccc12)C(=O)O; Phe(4-CONH2) = NC(=O)c1ccc(C[C@H](N)C(=O)O)cc1; Phe(3,5-F2) = N[C@@H](Cc1cc(F)cc(F)c1)C(=O)O; αMeW = C[C@](N)(Cc1c[nH]c2ccccc12)C(=O)O; FPrpTriazoleMe_Acid = not defined here; 2Nal = N[C@@H](Cc1ccc2ccccc2c1)C(=O)O; AEF = NCCOc1ccc(C[C@H](N)C(=O)O)cc1; αMeY = C[C@](N)(Cc1ccc(O)cc1)C(=O)O; Cyclopropanecarbonyl = O=C(C1CC1)*; αMeF = C[C@](N)(Cc1ccccc1)C(=O)O; αMeE = C[C@](N)(CCC(=O)O)C(=O)O; Pen = CC(C)(S)[C@H](N)C(=O)O; αMeK = C[C@](N)(CCCCN)C(=O)O; αMeC = C[C@](N)(CS)C(=O)O; Ac6c = NC1(C(=O)O)CCCCC1; Thp = NC1(C(=O)O)CCOCC1; Abu = CC[C@H](N)C(=O)O; pr = not defined here; Aib = CC(C)(N)C(=O)O; Piv = CC(C)(C)C(=O)*; Alloc = C=CCOC(=O)*; Propyl = CCC*

T1: human IL-23R (interleukin-23 receptor) (human, UniProt Q5VWK5 24-629)
T1 sequence (looked up): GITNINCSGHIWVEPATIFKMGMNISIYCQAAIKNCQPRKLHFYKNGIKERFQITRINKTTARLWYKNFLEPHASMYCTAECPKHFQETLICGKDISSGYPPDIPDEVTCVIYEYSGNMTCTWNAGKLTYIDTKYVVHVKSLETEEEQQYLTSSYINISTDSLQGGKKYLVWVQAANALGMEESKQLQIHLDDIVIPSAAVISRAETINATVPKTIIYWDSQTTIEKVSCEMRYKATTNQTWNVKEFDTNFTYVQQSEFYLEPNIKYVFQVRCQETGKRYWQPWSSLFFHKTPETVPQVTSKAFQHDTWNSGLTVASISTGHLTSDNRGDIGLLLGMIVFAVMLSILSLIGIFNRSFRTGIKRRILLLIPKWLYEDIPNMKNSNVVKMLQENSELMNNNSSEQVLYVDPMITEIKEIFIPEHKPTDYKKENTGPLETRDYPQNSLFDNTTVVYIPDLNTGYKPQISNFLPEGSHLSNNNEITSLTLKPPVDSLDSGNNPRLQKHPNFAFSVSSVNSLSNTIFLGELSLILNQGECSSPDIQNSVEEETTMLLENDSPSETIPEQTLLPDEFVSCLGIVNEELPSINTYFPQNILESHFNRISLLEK

B1: Compound No. 33 (peptide)
peptide: Propyl-[dR][Pen]QTWQ[Pen][AEF][2Nal][Thp]K(Alloc)NF-NH2
modifications: disulfide 2-7
SMILES: C=CCOC(=O)NCCCC[C@H](NC(=O)C1(NC(=O)[C@H](Cc2ccc3ccccc3c2)NC(=O)[C@H](Cc2ccc(OCCN)cc2)NC(=O)[C@H]2NC(=O)[C@H](CCC(N)=O)NC(=O)[C@H](Cc3c[nH]c4ccccc34)NC(=O)[C@H]([C@@H](C)O)NC(=O)[C@H](CCC(N)=O)NC(=O)[C@@H](NC(=O)[C@@H](CCCNC(=N)N)NCCC)C(C)(C)SSC2(C)C)CCOCC1)C(=O)N[C@@H](CC(N)=O)C(=O)N[C@@H](Cc1ccccc1)C(N)=O
B2: Compound No. 317 (peptide)
peptide: XNTXKXXXXENX
modifications: MeCO-Pen-N-T-7MeW-K(Ac)-Pen-AEF-2Nal-Acpx-E-N-THP---CONH2; cyclized: Pen-Pen disulfide bond
B3: Compound No. 12 (peptide)
peptide: RXQTWQCFXXENN
modifications: not fully specified; Ac-[(D)Arg]-[Abu]-Q-T-W-Q-[Cys]-Phe[4-(2-aminoethoxy)]-[2-Nal]-[THP]-E-N-N-ac; cyclized: Abu-Cys thioether bond
B4: Compound No. 40 (peptide)
peptide: Ac-[dR]CQTWQ[Pen][AEF][2Nal][Ac6c][αMeE]N[αMeF]-NH2
modifications: disulfide 2-7
SMILES: CC(=O)N[C@H](CCCNC(=N)N)C(=O)N[C@H]1CSSC(C)(C)[C@@H](C(=O)N[C@@H](Cc2ccc(OCCN)cc2)C(=O)N[C@@H](Cc2ccc3ccccc3c2)C(=O)NC2(C(=O)N[C@@](C)(CCC(=O)O)C(=O)N[C@@H](CC(N)=O)C(=O)N[C@@](C)(Cc3ccccc3)C(N)=O)CCCCC2)NC(=O)[C@H](CCC(N)=O)NC(=O)[C@H](Cc2c[nH]c3ccccc23)NC(=O)[C@H]([C@@H](C)O)NC(=O)[C@H](CCC(N)=O)NC1=O
B5: Compound No. 51 (peptide)
peptide: Ac-[dR][Pen]QTWQ[Pen][AEF][2Nal][Thp]K(Cyclopropanecarbonyl)N[Thp]-NH2
modifications: disulfide 2-7
SMILES: CC(=O)N[C@H](CCCNC(=N)N)C(=O)N[C@@H]1C(=O)N[C@@H](CCC(N)=O)C(=O)N[C@@H]([C@@H](C)O)C(=O)N[C@@H](Cc2c[nH]c3ccccc23)C(=O)N[C@@H](CCC(N)=O)C(=O)N[C@H](C(=O)N[C@@H](Cc2ccc(OCCN)cc2)C(=O)N[C@@H](Cc2ccc3ccccc3c2)C(=O)NC2(C(=O)N[C@@H](CCCCNC(=O)C3CC3)C(=O)N[C@@H](CC(N)=O)C(=O)NC3(C(N)=O)CCOCC3)CCOCC2)C(C)(C)SSC1(C)C

These binders were tested against T1, human IL-23R (interleukin-23 receptor) (assay: cell-based or functional assay).

Binder	PBMC pSTAT3 IC50 (nM)	pStat3 HTRF (nM), IC50, DB cells IL23R pSTAT3 cell assay [nM]
B1	11	
Ac-[dR][Abu]QTWQC[AEF][2Nal][Thp][Ac6c]N[αMeF]-NH2 (thioether 2-7) [Compound No. 50]	14	
Ac-[dR][Abu]QTWQC[AEF][2Nal][Thp][αMeE]N[1(2Nal)]-NH2 (thioether 2-7) [Compound No. 32]	19	
Ac-[dR][Abu]QTWQC[AEF][2Nal][Thp][αMeE]N[Phe(4-CONH2)]-NH2 (thioether 2-7) [Compound No. 34]	5.8	
Ac-[dR][Abu]QTWQC[AEF][2Nal][Ac6c][αMeE]N[Thp]-NH2 (thioether 2-7) [Compound No. 38]	4.3	
[dR][Abu]QTWQC[Phe(4-OMe)″][2Nal][Thp]EN[Thp]-NH2 (thioether 2-7) [Compound No. 22]	22	
B2	13	
Ac-[dR][Abu]QTWQC[AEF][2Nal][Thp][Aib]NF-NH2 (thioether 2-7) [Compound No. 49]	18	
[dR][Abu]QTWQC[Phe(4-OMe)″][2Nal][Thp]EN[Thp]-NH2 (thioether 2-7; not fully specified (N-terminus)) [Compound No. 21]	21	
Ac-[dR][Abu]QTWQC[AEF][2Nal][Ac6c][αMeE]NF[Aib]-NH2 (thioether 2-7) [Compound No. 28]	23	
Ac-[dR][Abu]QT[Trp(7-Ph)]K(Ac)C[AEF][2Nal][αMeK]K(Ac)N[αMeF]-NH2 (thioether 2-7) [Compound No. 11]		13.9
Ac-[dR][Abu]QTWQC[AEF][2Nal][Thp]QN[αMeF]-NH2 (thioether 2-7) [Compound No. 30]	25	
Ac-[dR][Abu]QTWQC[AEF][2Nal][Thp][αMeE]N[αMePhe(4-F)]-NH2 (thioether 2-7) [Compound No. 36]	14	
Ac-[dR][Abu]QTWQC[AEF][2Nal][Ac6c]EN[Thp]-NH2 (thioether 2-7) [Compound No. 42]	6.7	
FPrpTriazoleMe_Acid-[dR][Abu]QTWQC[Phe(4-OMe)″][2Nal][Thp]EN[Thp]-NH2 (thioether 2-7; reading uncertain) [Compound No. 25]	21	
Ac-[dR][Abu]QTWQC[AEF][2Nal][Thp][αMeE]N[αMeY]-NH2 (thioether 2-7) [Compound No. 44]	9.3	
Ac-[dR][Abu]QTWQC[AEF][2Nal][Thp][αMeE]N[αMeW]-NH2 (thioether 2-7) [Compound No. 31]	16	
Ac-[dR][Abu]QTWQC[AEF][2Nal][Thp][αMeE]NF[Aib][αMeK]-NH2 (thioether 2-7) [Compound No. 43]	8.2	

Binder	PBMC pSTAT3 IC50 (nM)	pStat3 HTRF (nM), IC50, DB cells IL23R pSTAT3 cell assay [nM]
Ac-[dR][Abu]QTWQC[AEF][2Nal][Ac6c][αMeE]NF-NH2 (thioether 2-7) [Compound No. 27]	11	
B3	20	
Ac-[dR][Abu]QTWQC[AEF][2Nal][Thp][αMeE]N[Phe(3,5-F2)]-NH2 (thioether 2-7) [Compound No. 46]	48	
B4	220	
[dR][Abu]QTWQC[Phe(4-(2-(Boc)aminoethoxy))][2Nal][Thp]EN[Thp]-NH2 (thioether 2-7) [Compound No. 47]	5.3	
Ac-[dR][Abu]QTWQC[AEF][2Nal][Ac6c][αMeE]NF[Aib][αMeK]-NH2 (thioether 2-7) [Compound No. 45]	17	
Ac-[dR][Abu]QTWQ[Pen][AEF][2Nal][Ac6c][αMeE]N[Thp]-NH2 (thioether 2-7) [Compound No. 39]	92	
Ac-[dR][Abu]QTWQC[AEF][2Nal][Ac6c][αMeE]N[αMeF]-NH2 (thioether 2-7) [Compound No. 29]	30	
pr-[dR][Pen]QTWQ[Pen][AEF][2Nal][Thp]K(Piv)NF-NH2 (disulfide 2-7; reading uncertain) [Compound No. 26]	8.2	
[dR]CQTWQ[Pen][AEF][2Nal][Thp]EN[αMeF]-NH2 (disulfide 2-7; not fully specified (N-terminus)) [Compound No. 23]	17	
Ac-[dR][Abu]QTWQC[Phe(3,4-diOMe)][2Nal][Thp][αMeE]N[αMeF]-NH2 (thioether 2-7) [Compound No. 41]	2500	
Ac-[dR][Abu]QTWQC[AEF][2Nal][Thp][αMeE]N[2Nal]-NH2 (thioether 2-7) [Compound No. 35]	25	
Ac-[dR][Abu]QTWQC[AEF][2Nal][Thp]ENF-NH2 (thioether 2-7) [Compound No. 17]	3.4	
[dR]CQTWQ[Pen][AEF][2Nal][Thp]EN[Thp]-NH2 (disulfide 2-7; not fully specified (N-terminus)) [Compound No. 20]	3.1	
B5	27	
Propyl-[dR][Abu]QTWQ[αMeC][AEF][2Nal][Thp]ENF-NH2 (thioether 2-7) [Compound No. 48]	7.2	
Ac-[dR][Abu]QTWQC[AEF][2Nal][Thp][αMeE]N[Thp]-NH2 (thioether 2-7) [Compound No. 37]	11	
